According to publication PMC10974264, “The Evolution and Application of a Novel DNA Aptamer Targeting Bone Morphogenetic Protein 2 for Bone Regeneration”:

T1: rhBMP-2 (His-tagged, refolded, E. coli-expressed) (human, UniProt P12643 283-396)
T1 sequence: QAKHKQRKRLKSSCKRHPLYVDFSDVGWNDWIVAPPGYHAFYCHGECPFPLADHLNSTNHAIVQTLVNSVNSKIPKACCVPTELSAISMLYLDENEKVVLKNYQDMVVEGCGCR

B1: BA2 (ssDNA)
DNA: CGTACGGTCGACGCTAGCAAAAAAAAATCTAAAAACAAGAAAAGAAAAACAAACACGTGGAGCTCGGATCC
B2: BNA2 (ssDNA)
DNA: CGTACGGTCGACGCTAGCATCAGCTCTCTGGGCTGAGTGGGTGGTGTGGCACGCACGTGGAGCTCGGATCC
B3: BA1 (ssDNA)
DNA: CGTACGGTCGACGCTAGCAAAACAAAAAAAAATAAAAAAAAAAAGACTAAAGACACGTGGAGCTCGGATCC
B4: BA1 in collagen fiber (ssDNA)
DNA: B3 DNA

Experiments:
[1] = biological target: T1, rhBMP-2 (His-tagged, refolded, E. …); test: ELONA; immobilized rhBMP-2, 100 ng/well; EMSA: 20 mM HEPES pH 7.4, 150 mM NaCl, 2 mM MgCl2, 2 mM CaCl2, 2 mM KCl, 37 C 1 h, 12% native PAGE at 4 C; ELONA: His-rhBMP-2 on HisSorb plate, biotinylated DNA 1 h at 37 C, PBST washes; details: protein: recombinant, tags: His tag (pET-15b NdeI/BamHI), chain copies: 2, label: biotin (ELONA), none in EMSA
[2] = biological target: T1, rhBMP-2 (His-tagged, refolded, E. …); test: ELISA-like; fiber of 500 nM BA1 and 10% type I collagen (0.3 mg/mL); EMSA: 20 mM HEPES pH 7.4, 150 mM NaCl, 2 mM MgCl2, 2 mM CaCl2, 2 mM KCl, 37 C 1 h, 12% native PAGE at 4 C; ELONA: His-rhBMP-2 on HisSorb plate, biotinylated DNA 1 h at 37 C, PBST washes; details: protein: recombinant; tags: His tag (pET-15b NdeI/BamHI); chain copies: 2; label: biotin

Row | Binder | Kd [1] | also measured
1 | B1 | 20.3 ± 4.73 nM | 
2 | B2 | 22.3 ± 1.97 nM | 
3 | B3 |  | Kd ([1]; single strand, predicted hairpin-like): 6.95 ± 0.53 nM
4 | B4 |  | Kd [2]: ~3.5 nM
